We go through one variant from FireProtDB (doi:10.1021/bi060848l).

B1: Camphor 5-monooxygenase, P00183 (parent)
chain: MTTETIQSNANLAPLPPHVPEHLVFDFDMYNPSNLSAGVQEAWAVLQESNVPDLVWTRCNGGHWIATRGQLIREAYEDYRHFSSECPFIPREAGEAYDFIPTSMDPPEQRQFRALANQVVGMPVVDKLENRIQELACSLIESLRPQGQCNFTEDYAEPFPIRIFMLLAGLPEEDIPHLKYLTDQMTRPDGSMTFAEAKEALYDYLIPIIEQRRQKPGTDAISIVANGQVNGRPITSDEAKRMCGLLLVGGLDTVVNFLSFSMEFLAKSPEHRQELIERPERIPAACEELLRRFSLVADGRILTSDYEFHGVQLKKGDQILLPQMLSGLDERENACPMHVDFSRQKVSHTTFGHGSHLCLGQHLARREIIVTLKEWLTRIPDFSIAPGAQIQHKSGIVSGVQALPLVWDPATTKAV

The variants in this data set derive from B1. The conditions noted are these: Pseudomonas putida; pH 7.4; Thermal; DSC; Tris 50 mM; KCl 100 mM; reversible: Yes; structure 2CPP; whole UniProt chain shown.
T102V: the Tm is 63.5 °C and the “change of melting temperature, mutant - wild type (higher = more stable)” value is -1.8 °C.
